This test addresses SIRPγ on Jurkat cells (human) (UniProt Q9P1W8). The test can be described thus: flow cytometry on Jurkat cells (endogenous SIRPγ), PE-conjugated antibody, fold over isotype (MFI). In general terms: In flow cytometry, cells or beads pass a laser one at a time.

Data on one substance can be found in patent US20250026827A1.

SIRPγ on Jurkat cells (human), sequence (Q9P1W8 29-387): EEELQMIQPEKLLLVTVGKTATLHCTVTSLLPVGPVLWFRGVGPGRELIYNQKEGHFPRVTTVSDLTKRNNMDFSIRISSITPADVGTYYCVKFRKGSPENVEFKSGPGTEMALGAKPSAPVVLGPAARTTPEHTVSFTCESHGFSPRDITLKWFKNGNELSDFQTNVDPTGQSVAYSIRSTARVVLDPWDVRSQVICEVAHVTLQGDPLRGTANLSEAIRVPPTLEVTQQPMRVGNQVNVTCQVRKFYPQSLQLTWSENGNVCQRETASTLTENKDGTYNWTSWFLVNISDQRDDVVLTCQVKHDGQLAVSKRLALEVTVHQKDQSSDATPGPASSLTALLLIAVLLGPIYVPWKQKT

With PE SIRPy LSB2.20 (antibody), the half-maximal effective concentration (EC50 (read off the curve)) – broadly, the concentration at which the effect is half-maximal – amounted to 20 nM.
